Measurements reported in publication doi:10.1101/583088.

Target: 3-methylaspartate ammonia lyase from Citrobacter amalonaticus (Citrobacter amalonaticus) (UniProt O66145)
Test: SEC

- stoichiometry N: 2
Substance: 3-methylaspartate ammonia lyase from Citrobacter amalonaticus (from UniProt O66145 1-413) (enzyme)
